Where a chain is given by its changes, count along the chain named. In names and notes the source's numbering stands. One block for each binder: values may come before it.
Columns and labels:
[1] = biological target: binding partner of C5A (XPA23); test: Biacore
[2] = biological target: binding partner of C5A (XPA23); test: Biacore, K-off
[3] = biological target: binding partner of C5A (XPA23); test: Biacore K-off

B5: C5A (XPA23) VH Y32P (antibody, V domains shown)
VH: EVQLLESGGGLVQPGGSLRLSCAASGFTFSKPFMFWVRQAPGKGLEWVSVISPSGGMTRYADSVKGRFTISRDNSKNTLYLQMNSLRAEDTAVYYCARVGYGGNSDYWGQGTLVTVSS
VL: DIQMTQSPSSVSASVGDRLTIICRASQDINRWLAWYQQTPGNAPKLLIHSATSLQSGVPSRFSGSGSGTDFTLTINSLQPEDFATYYCQQADSFPLTFGGGTKVEIK
fold difference in affinity vs original [1]: 0.68 fold
fold difference in affinity vs original [3]: 0.68 fold

B6: C5A (XPA23) VH V50T (antibody, V domains shown)
VH: B5 VH with P32Y, V50T
VL: B5 VL
fold difference in affinity vs original [1]: 0.03 fold
fold difference in affinity vs original [2]: 0.03 fold

B8: C5A (XPA23) VH Y32G (antibody, V domains shown)
VH: B5 VH with P32G
VL: B5 VL
fold difference in affinity vs original [1]: 1 fold
fold difference in affinity vs original [3]: 1 fold

B9: C5A (XPA23) VH P53S (antibody, V domains shown)
VH: B5 VH with P32Y, P53S
VL: B5 VL
fold affinity vs original [1]: 0.03 fold
fold difference in affinity vs original [2]: 0.03 fold

B10: C5A (XPA23) VH V50N (antibody, V domains shown)
VH: B5 VH with P32Y, V50N
VL: B5 VL
fold affinity vs original [1]: 0.03 fold
fold difference in affinity vs original [2]: 0.03 fold

B12: C5A (XPA23) VH Y32F (antibody, V domains shown)
VH: B5 VH with P32F
VL: B5 VL
fold affinity vs original [1]: 0.75 fold
fold difference in affinity vs original [3]: 0.75 fold

B14: C5A (XPA23) VH F35T (antibody, V domains shown)
VH: B5 VH with P32Y, F35T
VL: B5 VL
fold difference in affinity vs original [1]: 0.74 fold
fold difference in affinity vs original [2]: 0.74 fold

B16: C5A (XPA23) VH S54E (antibody, V domains shown)
VH: B5 VH with P32Y, S54E
VL: B5 VL
fold affinity vs original [1]: 0.03 fold
fold difference in affinity vs original [2]: 0.03 fold

B17: C5A (XPA23) VH P53N (antibody, V domains shown)
VH: B5 VH with P32Y, P53N
VL: B5 VL
fold affinity vs original [1]: 0.06 fold
fold difference in affinity vs original [2]: 0.06 fold

B18: C5A (XPA23) VH F35K (antibody, V domains shown)
VH: B5 VH with P32Y, F35K
VL: B5 VL
fold affinity vs original [1]: 0.68 fold
fold difference in affinity vs original [2]: 0.68 fold

B22: C5A (XPA23) VH I51Y (antibody, V domains shown)
VH: B5 VH with P32Y, I51Y
VL: B5 VL
fold affinity vs original [1]: 1.75 fold
fold difference in affinity vs original [2]: 1.75 fold

B23: C5A (XPA23) VH I51S (antibody, V domains shown)
VH: B5 VH with P32Y, I51S
VL: B5 VL
fold affinity vs original [1]: 0.69 fold
fold difference in affinity vs original [2]: 0.69 fold

B25: C5A (XPA23) VH P53E (antibody, V domains shown)
VH: B5 VH with P32Y, P53E
VL: B5 VL
fold affinity vs original [1]: 0.03 fold
fold difference in affinity vs original [2]: 0.03 fold

B27: C5A (XPA23) VH I51E (antibody, V domains shown)
VH: B5 VH with P32Y, I51E
VL: B5 VL
fold affinity vs original [1]: 0.73 fold
fold difference in affinity vs original [2]: 0.73 fold

B28: C5A (XPA23) VH F33P (antibody, V domains shown)
VH: B5 VH with P32Y, F33P
VL: B5 VL
fold difference in affinity vs original [1]: 0.91 fold
fold difference in affinity vs original [3]: 0.91 fold

B29: C5A (XPA23) VH F33G (antibody, V domains shown)
VH: B5 VH with P32Y, F33G
VL: B5 VL
fold difference in affinity vs original [1]: 0.76 fold
fold difference in affinity vs original [3]: 0.76 fold

B31: C5A (XPA23) VH I51H (antibody, V domains shown)
VH: B5 VH with P32Y, I51H
VL: B5 VL
fold affinity vs original [1]: 0.08 fold
fold difference in affinity vs original [2]: 0.08 fold

B35: C5A (XPA23) VH F35N (antibody, V domains shown)
VH: B5 VH with P32Y, F35N
VL: B5 VL
fold affinity vs original [1]: 0.86 fold
fold difference in affinity vs original [2]: 0.86 fold

B39: C5A (XPA23) VH F35Y (antibody, V domains shown)
VH: B5 VH with P32Y, F35Y
VL: B5 VL
fold affinity vs original [1]: 0.85 fold
fold difference in affinity vs original [2]: 0.85 fold

The remaining lines, values ahead:

fold affinity vs original [1]: 0.06 fold
fold difference in affinity vs original [2]: 0.06 fold
B1: C5A (XPA23) VH F35D (antibody, V domains shown)
VH: B5 VH with P32Y, F35D
VL: B5 VL

fold difference in affinity vs original [1]: 0.04 fold
fold difference in affinity vs original [2]: 0.04 fold
B2: C5A (XPA23) VH S52T (antibody, V domains shown)
VH: B5 VH with P32Y, S52T
VL: B5 VL

fold difference in affinity vs original [1]: 0.75 fold
fold difference in affinity vs original [3]: 0.75 fold
B3: C5A (XPA23) VH F33A (antibody, V domains shown)
VH: B5 VH with P32Y, F33A
VL: B5 VL

fold affinity vs original [1]: 0.04 fold
fold difference in affinity vs original [2]: 0.04 fold
B4: C5A (XPA23) VH P53K (antibody, V domains shown)
VH: B5 VH with P32Y, P53K
VL: B5 VL

fold difference in affinity vs original [1]: 0.76 fold
fold difference in affinity vs original [3]: 0.76 fold
B7: C5A (XPA23) VH F33V (antibody, V domains shown)
VH: B5 VH with P32Y, F33V
VL: B5 VL

fold affinity vs original [1]: 0.07 fold
fold difference in affinity vs original [2]: 0.07 fold
B11: C5A (XPA23) VH I51D (antibody, V domains shown)
VH: B5 VH with P32Y, I51D
VL: B5 VL

fold difference in affinity vs original [1]: 0.86 fold
fold difference in affinity vs original [2]: 0.86 fold
B13: C5A (XPA23) VH I51T (antibody, V domains shown)
VH: B5 VH with P32Y, I51T
VL: B5 VL

fold difference in affinity vs original [1]: 0.88 fold
fold difference in affinity vs original [3]: 0.88 fold
B15: C5A (XPA23) VH F33L (antibody, V domains shown)
VH: B5 VH with P32Y, F33L
VL: B5 VL

fold affinity vs original [1]: 0.79 fold
fold difference in affinity vs original [3]: 0.79 fold
B19: C5A (XPA23) VH F33W (antibody, V domains shown)
VH: B5 VH with P32Y, F33W
VL: B5 VL

fold affinity vs original [1]: 0.12 fold
fold difference in affinity vs original [2]: 0.12 fold
B20: C5A (XPA23) VH S54D (antibody, V domains shown)
VH: B5 VH with P32Y, S54D
VL: B5 VL

fold affinity vs original [1]: 0.11 fold
fold difference in affinity vs original [2]: 0.11 fold
B21: C5A (XPA23) VH I51K (antibody, V domains shown)
VH: B5 VH with P32Y, I51K
VL: B5 VL

fold affinity vs original [1]: 0.03 fold
fold difference in affinity vs original [2]: 0.03 fold
B24: C5A (XPA23) VH P53Y (antibody, V domains shown)
VH: B5 VH with P32Y, P53Y
VL: B5 VL

fold affinity vs original [1]: 0.83 fold
fold difference in affinity vs original [2]: 0.83 fold
B26: C5A (XPA23) VH I51Q (antibody, V domains shown)
VH: B5 VH with P32Y, I51Q
VL: B5 VL

fold difference in affinity vs original [1]: 0.75 fold
fold difference in affinity vs original [3]: 0.75 fold
B30: C5A (XPA23) VH F33I (antibody, V domains shown)
VH: B5 VH with P32Y, F33I
VL: B5 VL

fold difference in affinity vs original [1]: 1.07 fold
fold difference in affinity vs original [3]: 1.07 fold
B32: C5A (XPA23) VH Y32V (antibody, V domains shown)
VH: B5 VH with P32V
VL: B5 VL

fold affinity vs original [1]: 0.1 fold
fold difference in affinity vs original [2]: 0.1 fold
B33: C5A (XPA23) VH I51R (antibody, V domains shown)
VH: B5 VH with P32Y, I51R
VL: B5 VL

fold affinity vs original [1]: 0.03 fold
fold difference in affinity vs original [2]: 0.03 fold
B34: C5A (XPA23) VH P53Q (antibody, V domains shown)
VH: B5 VH with P32Y, P53Q
VL: B5 VL

fold affinity vs original [1]: 0.68 fold
fold difference in affinity vs original [2]: 0.68 fold
B36: C5A (XPA23) VH I51N (antibody, V domains shown)
VH: B5 VH with P32Y, I51N
VL: B5 VL

fold affinity vs original [1]: 0.09 fold
fold difference in affinity vs original [2]: 0.09 fold
B37: C5A (XPA23) VH F35S (antibody, V domains shown)
VH: B5 VH with P32Y, F35S
VL: B5 VL

fold difference in affinity vs original [1]: 0.75 fold
fold difference in affinity vs original [3]: 0.75 fold
B38: C5A (XPA23) VH Y32L (antibody, V domains shown)
VH: B5 VH with P32L
VL: B5 VL
